Consider 1 molecule from US5847088A, “Antibodies specific for platelet-activating factor acetylhydrolase” (ICOS Corporation, priority 1995, dated 1998).

The format of data set [1] is biochemical. The text has this: The most remarkable property of the PAF acetylhydrolase is its marked specificity for substrates with a short residue at the sn-2 position of the substrate. This strict specificity distinguishes PAF acetylhydrolase from other forms of PLA2. […] Native plasma PAF-AH has several other properties that distinguish it from other phospholipases including calcium-independence and resistance to compounds that modify sulfhydryl groups or disrupt disulfides.

The next data set deals with PAF-induced foot edema. In words: Rat foot edema model, PAF-induced. It is filed as in vivo. The procedure: (§1) Six to eight-week-old female Long Evans rats (Charles River, Wilmington, Mass.), weighing 180-200 grams, were used for all experiments. Prior to experimental manipulations, animals were anesthetized with a mixture of the anesthetics Ketaset (Fort Dodge Laboratories, Fort Dodge, Iowa), Rompun (Miles, Shawnee Mission, Kans.), and Ace Promazine (Aveco, Fort Dodge, Iowa) administered subcutaneously at approximately 2.5 mg Ketaset, 1.6 mg Rompun, 0.2 mg Ace Promazine per animal per dose. Edema was induced in the foot by administration of either PAF or zymosan as follows. PAF (Sigma #P-1402) was freshly prepared for each experiment from a 19.1 mM stock solution stored in chloroform/methanol (9:1) at -20° C. Required volumes were dried down under N2, diluted 1:1000 in a buffer containing 150 mM NaCl, 10 mM Tris pH 7.5, and 0.25% BSA, and sonicated for five minutes. Animals received 50 μl PAF (final dose of 0.96 nmoles) subcutaneously between the hind foot pads, and edema was assessed after 1 hour and again after 2 hours in some experiments. Zymosan A (Sigma #A-8800) was freshly prepared for each experiment as a suspension of 10 mg/ml in PBS. Animals received 50 μl of zymosan (final dose of 500 μg) subcutaneously between the hind foot pads and edema was assessed after 2 hours.
Edema was quantitated by measuring the foot volume immediately prior to administration of PAF or zymosan and at indicated time point post-challenge with PAF or zymosan. Edema is expressed as the increase in foot volume in milliliters. Volume displacement measurements were made on anesthetized animals using a plethysmometer (UGO Basile, model #7150) which measures the displaced water volume of the immersed foot. […] Repeated measurements of the same foot using this technique indicate the precision to be within 5%.
PAF-AH was injected locally between the foot pads, or systematically by IV injection in the tail vein. For local administration rats received 100 μl PAF-AH (4000-6000 U/ml) delivered subcutaneously between the right hind foot pads. Left feet served as controls by administration of 100 μl carrier (buffered salt solution). For systemic administration of PAF-AH, rats received the indicated units of PAF-AH in 300 μl of carrier administered IV in the tail vein. Controls received the appropriate volume of carrier IV in the tail vein.

In the next data set the test system is zymosan A-induced edema. In words: Rat foot edema model, zymosan A-induced. It is filed as in vivo. To be noted: 2000 U IV 15 minutes before zymosan A, 2 hours. The procedure: as §1, with “PAF (Sigma #P-1402) was freshly prepared for each experiment from a 19.1 mM stock solution stored in chloroform/methanol (9:1) at -20° C. Required volumes were dried down under N2, diluted 1:1000 in a buffer containing 150 mM NaCl, 10 mM Tris pH 7.5, and 0.25% BSA, and sonicated for five minutes.” left out, “Zymosan A (Sigma #A-8800) was freshly prepared for each experiment as a suspension of 10 mg/ml in PBS.” left out
Edema was quantitated by measuring the foot volume immediately prior to administration of PAF or zymosan and at indicated time point post-challenge with PAF or zymosan. Edema is expressed as the increase in foot volume in milliliters. […]
Rats (N=4 per group) were pretreated IV with either PAF-AH (2000 U in 300 μl carrier) or carrier alone. Fifteen minutes after pretreatment, groups received either PAF or zymosan A, and foot volume was assessed after 1 and 2 hours, respectively.

Data set [2] in a line: Pharmacokinetics of PAF-AH in rat circulation (double mAb capture ELISA). To be noted: 2000 U IV, mean ± SEM. It is filed as in vivo. Here is the method: Four rats received 2000 U of PAF-AH by IV injection in a 300 μl volume. Plasma was collected at various time points and stored at 4° C. and plasma concentrations of PAF-AH were determined by ELISA using a double mAb capture assay. In brief, monoclonal antibody 90G11D (Example 13) was diluted in 50 mM carbonate buffer pH 9.6 at 100 ng/ml and immobilized on Immulon 4 ELISA plates overnight at 4° C. After extensive washing with PBS containing 0.05% Tween 20, the plates were blocked for 1 hour at room temperature with 0.5% fish skin gelatin (Sigma) diluted in PBS. Serum samples diluted in PBS with 15 mM CHAPS were added in duplicate to the washed ELISA plate and incubated for 1 hour at room temperature. After washing, a biotin conjugate of monoclonal antibody 90F2D (Example 13) was added to the wells at a concentration of 5 μg/ml diluted in PBS and incubated for 1 hour at room temperature. After washing, 50 μl of a 1:1000 dilution of ExtraAvidin (Sigma) was added to the wells and incubated for 1 hour at room temperature. After washing, wells were developed using OPD as a substrate and quantitated. Enzyme activity was then calculated from a standard curve. […]
In general terms: An ELISA detects its analyte on a solid surface through an enzyme-linked reagent.

The subject of a further data set is PAF mediated lung injury. In words: Guinea pig model of ARDS (PAF infusion, BAL protein). It is filed as in vivo. Here is the method:
Based on the above observations, an ARDS model in guinea pigs was developed. A cannula is placed into the jugular vein of anaesthetized male Hartly guinea pigs (approximately 350-400 grams) and PAF diluted in a 500 μl volume of phosphate buffered saline with 0.25% bovine serum albumin as a carrier (PBS-BSA) is infused over a 15 minute period of time at a total dosage ranging from 100-400 ng/kg. At various intervals following PAF infusion, animals are sacrificed and lung tissue is collected. In guinea pigs infused with PAF, dose dependent lung damage and inflammation is clearly evident by 15 minutes and continues to be present at 60 minutes. Neutrophils and red blood cells are present in the alveolar spaces of PAF treated guinea pigs but absent in control or sham infused animals. Evidence of epithelial cell damage is also evident and reminiscent of hyaline membrane formation in human ARDS patients.
Groups of guinea pigs were pretreated with either PAF-AH (2000 units in 500 μl) or 500 μl of the PAF-AH buffer only. Fifteen minutes later these guinea pigs were infused with 400 ng/kg PAF in a 500 μl volume, infused over a 15 minute period. In addition, a sham group of guinea pigs was infused with 500 μl of PBS-BSA. […] To determine protein concentration in the BAL, samples were diluted 1:10 in saline and the OD 280 was determined.

B1: PAF-AH: Recombinant human plasma platelet-activating factor acetylhydrolase (beginning at Ile42 of SEQ ID NO:8) expressed in E. coli (protein, UniProt Q13093 22-441, looked up)
Platelet-activating factor …: FDWQYINPVAHMKSSAWVNKIQVLMAAASFGQTKIPRGNGPYSVGCTDLMFDHTNKGTFLRLYYPSQDNDRLDTLWIPNKEYFWGLSKFLGTHWLMGNILRLLFGSMTTPANWNSPLRPGEKYPLVVFSHGLGAFRTLYSAIGIDLASHGFIVAAVEHRDRSASATYYFKDQSAAEIGDKSWLYLRTLKQEEETHIRNEQVRQRAKECSQALSLILDIDHGKPVKNALDLKFDMEQLKDSIDREKIAVIGHSFGGATVIQTLSEDQRFRCGIALDAWMFPLGDEVYSRIPQPLFFINSEYFQYPANIIKMKKCYSPDKERKMITIRGSVHQNFADFTFATGKIIGHMLKLKGDIDSNVAIDLSNKASLAFLQKHLGLHKDFDQWDCLIEGDDENLIPGTNINTTNQHIMLQNSSGIEKYN
For B1, in data set [1], the “degradation of glutaroylPC (oxidized phospholipid)” value is listed as “rapidly degraded”. The “mean increase in volume (foot edema)” value in the data set with PAF-induced foot edema (2000 U IV 15 minutes before PAF, 1 hour, ± SEM (FIG. 6)) worked out at 0.08 ± 0.02 mL. Also, in the data set on PAF-induced foot edema (2000 U IV 15 minutes prior to PAF, two hours after challenge, ± SEM), the “mean volume increase (foot edema)” value worked out at 0.10 mL. Further, the ID50 in the data set on PAF-induced foot edema (IV 15 minutes prior to PAF, edema after 1 hour) is recorded as 40-80 U per rat. Moreover, the “IV doses found to dramatically reduce PAF mediated inflammation” value in the data set on PAF-induced foot edema (IV dosing studies) is reported as 160-2000 U/rat. In addition, the “PAF-induced edema, PAF-AH versus PAF antagonists” value in the data set with PAF-induced foot edema (PAF-AH 2000 U IV, CV3988 or Alprazolam 2 mg IP (FIG. 10)) is listed as “reduction in PAF-induced edema beyond that afforded by the established PAF antagonists”. The “plasma concentration predicted to block PAF-elicited edema” value with PAF-induced foot edema (calculated from plasma volume of 180-200 gram rats) was 25-40 U/ml. In addition, the “increase in foot volume” value in the data set with PAF-induced foot edema (local subcutaneous 100 μl PAF-AH (4000-6000 U/ml), immediate PAF challenge, 1 hour post-challenge, mean ± SEM) came to 0.08 mL. The “duration of protection from PAF induced edema” value with PAF-induced foot edema (single 2000 U IV dose) was “at least 24 hours”. Further, in the data set with zymosan A-induced edema, the “effect on zymosan induced edema” value is reported as “failed to block”. For the same molecule, in data set [2], the “plasma enzyme level at one hour” value was found to be 374 U/ml. In the data set with PAF mediated lung injury (2000 units 15 minutes before 400 ng/kg PAF infusion), the “BAL fluid protein concentration” value amounted to 1.13 ± 0.25 mg/mL. In addition, the “protection against PAF mediated lung injury” value in the data set on PAF mediated lung injury (2000 units pretreatment) is “completely protect”.
